2 molecules from article PMC8541144, “Synthesis, Characterization and In Vitro Evaluation of Hybrid Monomeric Peptides Suited for Multimodal Imaging by PET/OI: Extending the Concept of Charge—Cell Binding Correlation” (Pharmaceuticals, 2021) can be followed below.

Data set [1] in a line: LogD determination: partition between 1-octanol and phosphate buffer pH 7.4. The method, then:
In the following, the lipophilicity of the labeled conjugates was investigated to get a first idea of the potential excretion pathway of the agents during an in vivo application. The logD values were determined by partition experiments between n-octanol and aqueous solution at pH 7.4.
The mixtures were intensively shaken for 5 min on a vibrating plate. After subsequent centrifugation at 13,000 rpm for 5 min, 125 µL were taken from each phase and measured in a γ-counter. The logD values were calculated from three or four independent experiments, each performed in triplicate.

Data set [2] in a line: Photophysical properties (absorbance and emission measurements). It counts as physicochemical. The following applies: PBS, 1 × 10^−5 mol × L^−1. Here is the method:
Following the synthesis of the target compounds, their photophysical properties were determined. Here, a possible negative influence of the conjugation of the different MIUs to the corresponding peptidic structures on the absorbance coefficients, or the absorption or emission wavelengths should be ruled out. In Table 2, the results of these evaluations are reported for the MIU-peptide-bioconjugates 7 a-c, 8 a-c and 9 a-c as well as for the MIUs 7-9. As expected, no significant loss or shift of fluorescence properties of the final compounds compared to their imaging units before conjugation was observed. This is in line with the earlier observation for PESIN homodimer-MIU-conjugates where an influence of dye or MIU bioconjugation on fluorescence quantum yields and other photophysical properties could be ruled out.
For HPLC chromatography, a Dionex UltiMate 3000 system was used together with Chromeleon Software (Version 6.80). For semipreparative analyses, a Chromolith (RP-18e, 100–10 mm, Merck, Germany) column was used. For radioanalytical use, a Dionex UltiMate 3000 system equipped with a Raytest GABI Star radioactivity detector was used together with a Chromolith Performance (RP-18e, 100–4.6 mm, Merck, Germany) column. All operations were performed with a flow rate of 4 mL/min using H2O + 0.1% TFA and MeCN + 0.1% TFA as solvents. HR-ESI (high-resolution Electrospray Ionization) and MALDI (Matrix-Assisted Laser Desorption/Ionization) spectra were obtained with Finnigan MAT95Q and Bruker Daltronics Microflex spectrometers, respectively. γ-counting was performed using a 2480 Wizard gamma counter system from Perkin Elmer (Rodgau, Germany). For absorbance and emission measurements, a Tecan Infinite M200 Microplate reader together with a Nunc Micro-Well 96 solid plate from ThermoFisher (Dreieich, Germany) was used. Confocal fluorescence microscopy was performed on a Leica TCS SP8 confocal microscope with lasers at λ = 405, 488, 552 and 638 nm. Overlays of microscopies were generated directly with the operating software or afterwards using FIJI software (V1.50e).

The next data set deals with T1, GRPR (Homo sapiens, UniProt P30550).
T1 construct: host or cells: HEK-293 (HEK-GRPR), stably transfected
T1 sequence (P30550 whole entry, species assumed): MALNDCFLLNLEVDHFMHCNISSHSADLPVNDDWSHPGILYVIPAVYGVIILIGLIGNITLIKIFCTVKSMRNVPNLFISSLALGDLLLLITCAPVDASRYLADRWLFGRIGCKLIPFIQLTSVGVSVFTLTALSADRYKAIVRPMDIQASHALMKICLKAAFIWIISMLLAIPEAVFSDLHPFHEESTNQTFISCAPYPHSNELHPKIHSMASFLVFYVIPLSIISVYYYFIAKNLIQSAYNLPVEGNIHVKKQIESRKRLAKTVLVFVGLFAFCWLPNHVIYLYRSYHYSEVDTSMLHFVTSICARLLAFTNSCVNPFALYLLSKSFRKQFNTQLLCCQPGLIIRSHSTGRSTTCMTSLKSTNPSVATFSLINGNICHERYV
As to the kind of experiment: Competitive displacement assay on stably GRPR-transfected HEK-293 cells, [125I]I-Tyr4-bombesin as competitor. The following applies: GRPR-expressing HEK cells, mean ± SD. It counts as binding. Here is the method:
Each compound was evaluated at least three times, each experiment being performed in triplicate. […] The respective cells were harvested and re-suspended in the binding buffer to give a cell concentration of 2 × 10^6/mL. […] Using a Millipore MultiScreen disposable punch and a Millipore MultiScreen punch kit, the filters of the well plate were collected in γ-counter tubes separately and measured by γ-counting.

As to `CSCC[C@H](NC(=O)[C@H](CC(C)C)NC(=O)[C@H](Cc1c[nH]cn1)NC(=O)CNC(=O)[C@@H](NC(=O)[C@H](C)NC(=O)[C@H](Cc1c[nH]c2ccccc12)NC(=O)[C@H](CCC(N)=O)NC(=O)CCOCCOCCOCCOCCNC(=O)CCCN1C(=O)CC(SC[C@H](NC(=O)[C@H](CCCCNC(=O)c2ccc(C3=C(/C=C/C4=[N+](CCCCS(=O)(=O)[O-])c5ccc6ccccc6c5C4(C)C)CCC/C3=C\C=C3\N(CCCCS(=O)(=O)O)c4ccc5ccccc5c4C3(C)C)cc2)NC(=O)CC[C@H](C(=O)O)N2CCN(CC(=O)O)CCN(CC(=O)O)CC2)C(N)=O)C1=O)C(C)C)C(N)=O` (stereo partly drawn) [9 a, BBN7-14-cyanine-NODA-GA], in data set [1], the logD (in general, the decadic logarithm of the distribution of all forms, ionised or not, between an organic phase and buffer at a given pH) is -1.45 ± 0.06. Besides, the “λmax(abs)” value in data set [2] is reported as 724/800. Further, in data set [2] (λex = 650 nm), the “Stokes Shift” value is 9 nm and the “λmax(em)” value came out at 809 nm.
For `CSCC[C@H](NC(=O)[C@H](CC(C)C)NC(=O)[C@H](Cc1c[nH]cn1)NC(=O)CNC(=O)[C@@H](NC(=O)[C@H](C)NC(=O)[C@H](Cc1c[nH]c2ccccc12)NC(=O)[C@H](CCC(N)=O)NC(=O)CCOCCOCCOCCOCCNC(=O)CCCN1C(=O)CC(SC[C@H](NC(=O)CNC(=O)CC[C@H](C(=O)O)N2CCN(CC(=O)O)CCN(CC(=O)O)CC2)C(N)=O)C1=O)C(C)C)C(N)=O` (stereo partly drawn) [10 a, BBN7-14-NODA-GA], the logD in data set [1] is -3.78 ± 0.04. For the same molecule, the IC50 (as a rule, the midpoint of a concentration-inhibition curve) on GRPR amounted to 19.1 ± 1.44 nM.
